Results published in patent publication US20230406961A1 (published 2023).

B1: endoglin antibody clone Kro22 (humanized AB clone Kro22.2 / Kro22.6) (antibody, V domains shown)
VH: QVQLVQSGAEVKKPGASVKVSCKASGYTFTSYWMHWVRQAPGQGLEWIGNIYPGSGSTFYDEKFKGRATLTVDTSISTAYMELSRLRSDDTAVYYCTRRNYVTGFDYWGQGTTVTVSS
VL: DIQLTQSPSFLSASVGDRVTITCKSSQSVLYSSNQKNYLAWYQQKPGKAPKLLIYWASTRESGVPSRFSGSGSGTEFTLTISSLQPEDFATYYCHQYLSSYTFGQGTKLEIK
B2: Endoglin (receptor)
chain: ETVHCDLQPVGPERGEVTYTTSQVSKGCVAQAPNAILEVHVLFLEFPTGPSQLELTLQASKQNGTWPREVLLVLSVNSSVFLHLQALGIPLHLAYNSSLVTFQEPPGVNTTELPSFPKTQILEWAAERGPITSAAELNDPQSILLRLGQAQGSLSFCMLEASQDMGRTLEWRPRTPALVRGCHLEGVAGHKEAHILRVLPGHSAGPRTVTVKVELSCAPGDLDAVLILQGPPYVSWLIDANHNMQIWTTGEYSFKIFPEKNIRGFKLPDTPQGLLGEARMLNASIVASFVELPLASIVSLHASSCGGRLQTSPAPIQTTPPKDTCSPELLMSLIQTKCADDAMTLVLKKELVAHLKCTITGLTFWDPSCEAEDRGDKFVLRSAYSSCGMQVSASMISNEAVVNILSSSSPQRKKVHCLNMDSLSFQLGLYLSPHFLQASNTIEPGQQSFVQVRVSPSVSEFLLQLDSCHLDLGPEGGTVELIQGRAAKGNCVSLLSPSPEGDPRFSFLLHFYTVPIPKTGTLSCTVALRPKTGSQDQEVHRTVFMRLNIISPDLSGCTSKG

Tests used:
Test in all cases: SPR (Biacore)
[1] = target: T1, endoglin (CD105) (UniProt P17813 26-586)
T1 chain: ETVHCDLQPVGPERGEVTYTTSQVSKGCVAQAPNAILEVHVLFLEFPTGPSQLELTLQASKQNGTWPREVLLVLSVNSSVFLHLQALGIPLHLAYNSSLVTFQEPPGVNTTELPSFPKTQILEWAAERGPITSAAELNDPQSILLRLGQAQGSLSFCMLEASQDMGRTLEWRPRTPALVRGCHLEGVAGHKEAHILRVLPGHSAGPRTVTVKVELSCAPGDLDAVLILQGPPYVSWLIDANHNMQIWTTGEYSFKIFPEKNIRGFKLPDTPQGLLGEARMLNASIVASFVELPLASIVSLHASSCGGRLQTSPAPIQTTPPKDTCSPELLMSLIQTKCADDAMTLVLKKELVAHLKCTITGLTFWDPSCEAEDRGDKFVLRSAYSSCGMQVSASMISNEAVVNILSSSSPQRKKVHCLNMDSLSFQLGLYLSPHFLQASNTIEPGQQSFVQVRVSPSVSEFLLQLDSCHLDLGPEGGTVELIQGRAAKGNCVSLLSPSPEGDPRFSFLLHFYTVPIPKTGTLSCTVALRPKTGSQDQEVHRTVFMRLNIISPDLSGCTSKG

[2] = target: Endoglin_23
[3] = target: Endoglin_10

Row | Binder | Kd [1] [nM] | Kd [2] [nM] | Kd [3] [nM]
1 | B1 | 2.44 |  | 
2 | B2 |  | 64 | 23.5
